Test results taken from the nanobody polyreactivity screen of Harvey et al. (2022).

Test: yeast display, Sf9 membrane polyspecificity reagent, FACS + sequencing; frameworks hold sequencing errors
Summary of the method: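 A synthetic nanobody library was expressed on Saccharomyces cerevisiae BJ5465 by galactose induction for 36–48 hours. The library was stained for 1 hour at 4 °C with 10% biotinylated, detergent-solubilized Sf9 membrane reagent and enriched with streptavidin microbeads before FACS. Low and high (top ~1%) gates were set on anti-HA fluorescence for expression and streptavidin fluorescence for reagent binding, and each polyreactivity label reflects the gate of origin.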
With “QVQLVESGGGLVQAGGSLRLSCAASGSIFYYYAMGWYRQAPGKERELVAAINGGDTYYADSVKGRFTISRDNAKNTVYLQMNSLKPEDTAVYYCAAEGVTVEWDYDYWGQGTQVTVSS” the “polyreactivity (PSR sort gate)” value was “low polyreactivity”.
In the case of “QVQLVESGGGLVQAGGSLRLSCAASGSIFYYYAMGWYRQAPGKERELVAAISSTGGSTYYADSVKGRFTISRDNAKNTVYLQMNSLKPEDTAVYYCAAYHYGSNVFYFDYWGQGTQVTVSS”, the “polyreactivity (PSR sort gate)” value is reported as “low polyreactivity”.
In the case of “QVQLVESGGGLVQAGGSLRLSCAASGSIFYYYAMGWYRQAPGKERELVAANDFGGGSTYYADSVKGRFTISRDNAKNTVYLQMNSLKPEDTAVYYCAARTFKDAGSAYGSWGQGTQVTVSS”, the “polyreactivity (PSR sort gate)” value is reported as “high polyreactivity”.
With “QVQLVESGGGLVQAGGSLRLSCAASGSIFYYYAMGWYRQAPGKERELVASITSGARTNYADSVKGRFTISRDNAKNTVYLQMNILKPEDTAVFYCAADIKWSIRRAYDYWGQGTQVTVSS” the “polyreactivity (PSR sort gate)” value was “high polyreactivity”.
For “QVQLVESGGGLVQAGGSLRLSCAASGSIFYYYAMGWYRQAPGKERELVATITSGGTTYYADSVKGRFTISRDNAKNTVYLQMISLKPEDTAVYYCAKRVKYHLYWGQGTQVTVSS”, the “polyreactivity (PSR sort gate)” value was “low polyreactivity”.
For “QVQLVESGGGLVQAGGSLRLSCAASGSIFYYYVMGWYRQAPGKERELVAAISSGGGTNYADSVKGRFTISRDNAKNTVYLQMNSLKPEDTAVYYCANASAYGLANDYDYWGQGTQVTVSS”, the “polyreactivity (PSR sort gate)” value was “low polyreactivity”.
In the case of “QVQLVESGGGLVQAGGSLRLSCAASGSIGTYVMGWYRQAPGKERELVAAISLSGGSTYYADSVKGRFTISRDNAKNTVYLQMNSLKPEDTAVYYCNAVKATRNTGSDYWGQGTQVTVSS”, the “polyreactivity (PSR sort gate)” value is reported as “low polyreactivity”.
For “QVQLVESGGGLVQAGGSLRLSCAASGSIGYYAMGWYRQAPGKERELVAVISRSGTGTSYADSVKGRFTISRDNAKNTVYSQMTSLKPEDTAVYYCNAETYTYRYENDYWGQGTQVTVSS”, the “polyreactivity (PSR sort gate)” value was “high polyreactivity”.
With “QVQLVESGGGLVQAGGSLRLSCAASGSIIARYAMGWYRQAPGKERELVAANTWSATSTYYADSVKGRFTISRDNAKNTVYLQMNSLKPEDTAVYYCNAGASYFLVISQSRGDYWGQGTQVTVSS” the “polyreactivity (PSR sort gate)” value was “low polyreactivity”.
For “QVQLVESGGGLVQAGGSLRLSCAASGSIIDINALGWYRQAPRKERDLVAAISLSAGSTYYADSVKGRFSISRDNAKNTVYLQMNSLKPEDTAVYYGAAERGGRGTLRNRYDYWGQGTQVTVSS”, the “polyreactivity (PSR sort gate)” value was “low polyreactivity”.
For “QVQLVESGGGLVQAGGSLRLSCAASGSIIGDNAMGWSRQAPGKERELVADITNGGSTNYADSVKGRFTISRDNAKNTVYLQMNSLKPEDTAVYYCNKDIVWYGNYGYWGQGTQVTVSS”, the “polyreactivity (PSR sort gate)” value was “low polyreactivity”.
For “QVQLVESGGGLVQAGGSLRLSCAASGSIIGGYVMGWYRQAPGKERELVAAITSRVGSTYYADSVKGRFTISRDNAKNTVYLQMNSLKPEDTAVYYCAVVFAKRAWSRYDYWGQGTQVTVSS”, the “polyreactivity (PSR sort gate)” value was “high polyreactivity”.
In the case of “QVQLVESGGGLVQAGGSLRLSCAASGSIIGRYAMAWYRPAPGQVRELVAAISTGGGRTYYADSVKGRFTISRDNAKNTVYLQMNSLKAEDTAVYYCNAGPYKGWGRMDYWGQGTQVTVSS”, the “polyreactivity (PSR sort gate)” value is reported as “high polyreactivity”.
In the case of “QVQLVESGGGLVQAGGSLRLSCAASGSIIGRYAMGWYRQAPGKERELVAAISTGGGRTYYADSVKGRFTISRDNAKNTVYLQLNSLKPEDTAVYYCNAGPYKGWGRMDYWGQGTQVTVSS”, the “polyreactivity (PSR sort gate)” value is reported as “high polyreactivity”.
With “QVQLVESGGGLVQAGGSLRLSCAASGSIIGTNVMGWYRQPPGKERELVPSISYRDGTTYYADSVKGRFTISRDNAKNTVYLQMNSLKPEDTAVYYFAVANYYSYYWGQGTQVTVSS” the “polyreactivity (PSR sort gate)” value was “low polyreactivity”.
With “QVQLVESGGGLVQAGGSLRLSCAASGSIIGTYAMGWYRQAPGKERELVAAISSSSTRTYYADSVKGRFTISRDTAKNTVYLQMNSLKPEDTAVYYCAATFTAVRGKYGYWGQGTQVTVSS” the “polyreactivity (PSR sort gate)” value was “high polyreactivity”.
For “QVQLVESGGGLVQAGGSLRLSCAASGSIIKPYAMGWYRQAPGKERDLVAAIRSSGGRTNYADSVKGRFTISRDNAKNTVYLQMNSLKPEDTAVYYCAALVRVTGTYYTKYDFWGQGNQVTVSS”, the “polyreactivity (PSR sort gate)” value was “high polyreactivity”.
With “QVQLVESGGGLVQAGGSLRLSCAASGSIIPPNAMGWYRQAPGKERELVAGISSGGSTTYADSVKGRFTISRDNAKNTVYLQMNSLKPEDTAVYYCAADVPYGASIISYDYWGQGTQVTVSS” the “polyreactivity (PSR sort gate)” value was “low polyreactivity”.
In the case of “QVQLVESGGGLVQAGGSLRLSCAASGSIIQQYDKGWYRQAPGKHREFVAANSSSGGSTYYADSVKGRFTISRDNAKNTVYLQMNSLKPEDTAVYYCAVDTKGYTYVDYLHGSGEFGYWGQGTQVTVSS”, the “polyreactivity (PSR sort gate)” value is reported as “low polyreactivity”.
For “QVQLVESGGGLVQAGGSLRLSCAASGSIIQVYAMGWYRQATGKERELVASITRTGGSTYYADSVKGRFTISRDNAKNTVYLLMNSLKPEDTAVYYCAAEKRYYYYVKYWKSDYWGQGTQVTVSS”, the “polyreactivity (PSR sort gate)” value was “low polyreactivity”.
With “QVQLVESGGGLVQAGGSLRLSCAASGSIIRSYTMGWYRQAPGKERELVASISRTGGSTHYADSVKGRFTISRDNAKNTVYLQMNSLKPEDTAVYYCNADTRRNRLMDYWGQGTQVTVSS” the “polyreactivity (PSR sort gate)” value was “high polyreactivity”.
In the case of “QVQLVESGGGLVQAGGSLRLSCAASGSIISAYAMGWYRQAPGKVREFVASITWSGGSTYYADSVKGRFTISRDNAKNTVYLQMNSLKPEDTAVYDCAAVYVTWYNNYEYWGQGTQVTVSS”, the “polyreactivity (PSR sort gate)” value is reported as “high polyreactivity”.
In the case of “QVQLVESGGGLVQAGGSLRLSCAASGSIISNYVMGWYRQAPGKERELDAAITRRGGRTYYADSVKGRFTISRDNAKNTVYLQMNSLKPEDTAVYYCAAEGYVYTFWDSTDFDYWGQGTQVTVSS”, the “polyreactivity (PSR sort gate)” value is reported as “high polyreactivity”.
For “QVQLVESGGGLVQAGGSLRLSCAASGSIISYYAMGWYRQAPGKERELVAVINSGSTNYADSVKGRFTLSRDNSKNTVYLQMHSLNPEDTAVYYCAAYSLLYLLEQYTTAPYDYWGQGTQVTVSS”, the “polyreactivity (PSR sort gate)” value was “low polyreactivity”.
For “QVQLVESGGGLVQAGGSLRLSCAASGSIITPYTMGWDRQAPGKERELVAAISWSGATTHYADSVKGRFTISRDNAKNTVYLQMNSLKPEDTAVYYCAARWGLRSSRYYYWGQGTQVTVSS”, the “polyreactivity (PSR sort gate)” value was “high polyreactivity”.
For “QVQLVESGGGLVQAGGSLRLSCAASGSIITPYTMGWYRQAPGKERELVAAITGSAGSTYYADSVKGRFTISRDNAKNTVYLQMNSLKPEDTAVYYCAAAVWGVYQWYYYWGQGTQVTVSS”, the “polyreactivity (PSR sort gate)” value was “high polyreactivity”.
With “QVQLVESGGGLVQAGGSLRLSCAASGSIITWYTMGWYRQAPGKERELVAAISWSGGRTYYADSVKGRFTISRDNAKNTVYLQMNSLKPEDTAVYYCAASAYGRPPFDYWGQGTQVTVSS” the “polyreactivity (PSR sort gate)” value was “high polyreactivity”.
For “QVQLVESGGGLVQAGGSLRLSCAASGSIIVGYAMGWYRQAPGTERELVAAISWSGGRTYYADSVKGRFTISRDNAKNSVYLQMNSLKPEDTAVYYCATVTKGSLRYNYNYWGQGTQVTVSS”, the “polyreactivity (PSR sort gate)” value was “high polyreactivity”.
For “QVQLVESGGGLVQAGGSLRLSCAASGSIIVPYAMGWYRQAPGKERELVAAISSRGGRTYYADSVKGRFTISRDNAKNTVYLQMNSLKPEDTAVYYCNKTAGSHIPRLEYWGQGTQVTVSS”, the “polyreactivity (PSR sort gate)” value was “low polyreactivity”.
With “QVQLVESGGGLVQAGGSLRLSCAASGSIIVRYAMGWYRQAPGKERELVAAITSRGGSTYYAVSVKGRFTISRDNAKNTVYLQMNSLKPEDTAVYYCAAYGDQRSTPAIDKYGGQGTQVTVSS” the “polyreactivity (PSR sort gate)” value was “low polyreactivity”.
In the case of “QVQLVESGGGLVQAGGSLRLSCAASGSIIVRYAMGWYRQAPGKERELVASISKRGGSTYYADSVKGRFTISRDNAKNTVYLQMNSLKPEDTAVYYCAARVVTRVRGVGYNYWGQGTQVTVSS”, the “polyreactivity (PSR sort gate)” value is reported as “high polyreactivity”.
In the case of “QVQLVESGGGLVQAGGSLRLSCAASGSIIVVYAMGWSRQAPGKERELVAAISWGIGSTYYADSVKGRFTISRDNAKNTVYLLMNILKPEETAVYYCAAVTDIVLYDYWGQGTQVTVSS”, the “polyreactivity (PSR sort gate)” value is reported as “low polyreactivity”.
In the case of “QVQLVESGGGLVQAGGSLRLSCAASGSIIWRNAMGWYRQAPGKERELVAAITWSRGSTFYADSVKGRFTISRDNAKNTVYLQMNSLKAEDTAVYYCAAYGGRRFDYWGQGTQVTVSS”, the “polyreactivity (PSR sort gate)” value is reported as “low polyreactivity”.
With “QVQLVESGGGLVQAGGSLRLSCAASGSIIYIYAMGWYRQAPGKERELVAAISSGDRTNYADSVKGRFTISRDNAKNTVYLQMNSLKPEDTAVYYCAARGRGSAAKYNYWGQGTQVTVSS” the “polyreactivity (PSR sort gate)” value was “high polyreactivity”.
For “QVQLVESGGGLVQAGGSLRLSCAASGSIIYYYAMGWYRQAPGKERELVAAIRGGGSTNYADSVKGRFTISRDNAKNTVYLQMNSLKPEDTAVYYCNADYRNDCGTPLWYAYNYWGQGTQVTVSS”, the “polyreactivity (PSR sort gate)” value was “low polyreactivity”.
With “QVQLVESGGGLVQAGGSLRLSCAASGSILAYYARGWYRQAPGQERELVADIRAGGGNTYYADSVKGRFTISRDNAKNTVYLQMNSLKPEDTAVYYCNADWHFWYKWESYDYDYWGQGTQVTVSS” the “polyreactivity (PSR sort gate)” value was “low polyreactivity”.
With “QVQLVESGGGLVQAGGSLRLSCAASGSILDGNAMGWYIQAPGKERELVAAISWNGARTYYADSVKGRFTISRDNAKNTVYLQMNSLKPEDTAVFYCAARRGSGKFGKYRGVDYWGQVTQVTVSS” the “polyreactivity (PSR sort gate)” value was “high polyreactivity”.
For “QVQLVESGGGLVQAGGSLRLSCAASGSILDGNNMGWSRQAPGKERELVAAISWRGGSTYYADSVKGRFTISRDNAKNTVYLQMNSLKPEDTAVYYCNTYHPYWGSGFDYWGQGTQVTVSS”, the “polyreactivity (PSR sort gate)” value was “low polyreactivity”.
For “QVQLVESGGGLVQAGGSLRLSCAASGSILDTNAMGWYRQAPGKERELVARIDIDGSTNYADSVKGRFTISRDNAKNTVYLQMNSLKPEDTAVYYCAADAERHAPKFTYGTYDYWGQGTQVTVSS”, the “polyreactivity (PSR sort gate)” value was “low polyreactivity”.
In the case of “QVQLVESGGGLVQAGGSLRLSCAASGSILDYYAMGWYRQAPGKERELVAAIRVNGGSTYYADSVKGRFTISRDNAKNTVYLQMNSLKPEDTAVYFCAARFSRFRRTRSEYDYWGQGTQVTVSS”, the “polyreactivity (PSR sort gate)” value is reported as “high polyreactivity”.
In the case of “QVQLVESGGGLVQAGGSLRLSCAASGSILEYYAMGWYRQAPGKERELVAGISSAGNTYYADSVKGRFTISRDNAKNTVYLQMNSLKPEDTAVYYCAAVPWSGEYDYWGQGTQVTVSS”, the “polyreactivity (PSR sort gate)” value is reported as “low polyreactivity”.
For “QVQLVESGGGLVQAGGSLRLSCAASGSILFGNAMGWYRQAPGKEMELVAAITVSGGSTYYADSVKGRFTISRDNAKNTVYLQMNSLKPEDTAVYYCAAVSLFRDSQFDYWGQGTQVTVSS”, the “polyreactivity (PSR sort gate)” value was “low polyreactivity”.
In the case of “QVQLVESGGGLVQAGGSLRLSCAASGSILFTNAMGWYRQAPGKERELVAAISSGGSTYYADSVKGRFTISRDNAKNTVYLQMNSLKPEDTAVYYCAADQLNVGREYVEYDYWGQGTQVTVSS”, the “polyreactivity (PSR sort gate)” value is reported as “low polyreactivity”.
